The text below walks through data of patent publication US20210063414A1, “METHODS FOR PREVENTING AND/OR TREATING BONE LOSS CONDITIONS BY MODULATING IRISIN” (Dana-Farber Cancer Institute, Inc., priority 2018, published 2021).

Holding throughout (experiment): Crosslinking/co-immunoprecipitation/mass spectrometry (TMT quantitative proteomics) to identify irisin receptors
What all share (assay type): binding

The target of test [1] is T1, MLO-Y4 cell surface proteins (Mus musculus, UniProt P35762).
T1 construct: endogenous in cells; host or cells: MLO-Y4
T1 sequence (P35762 1-236): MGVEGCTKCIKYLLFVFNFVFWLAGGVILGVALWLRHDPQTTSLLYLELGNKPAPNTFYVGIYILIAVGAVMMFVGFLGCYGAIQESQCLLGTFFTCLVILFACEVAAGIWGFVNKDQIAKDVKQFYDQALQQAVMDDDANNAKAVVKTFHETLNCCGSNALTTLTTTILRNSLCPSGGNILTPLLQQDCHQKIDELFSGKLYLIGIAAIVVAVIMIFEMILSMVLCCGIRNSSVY
The following applies: TMT ratio, Cd81 CD81 antigen. An outline of the steps:
(§1)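 Relative protein abundance came from 6-plex TMT MS3 quantitation on an Orbitrap Fusion Lumos, after in-gel trypsin digestion of Coomassie-stained SDS-PAGE lanes. Input was a Ni-NTA pulldown (250 mM imidazole elution) of lysates from murine MLO-Y4 cells. These cells were treated on ice with His-tagged irisin or adipsin (10 nM, 20 min) in serum-free medium, then crosslinked with 1.5 mM DTSSP for 30 min.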

For test [2], the target named is T2, MLO-Y4 cell surface proteins (Mus musculus, UniProt P62960).
T2 construct: endogenous in cells; host or cells: MLO-Y4
The following applies: co-precipitated protein Ybx1 (YBOX1_MOUSE). An outline of the steps: as §1

Test [3] deals with T3, MLO-Y4 cell surface proteins (Mus musculus, UniProt P97350).
T3 construct: endogenous in cells; host or cells: MLO-Y4
T3 sequence (P97350 1-728): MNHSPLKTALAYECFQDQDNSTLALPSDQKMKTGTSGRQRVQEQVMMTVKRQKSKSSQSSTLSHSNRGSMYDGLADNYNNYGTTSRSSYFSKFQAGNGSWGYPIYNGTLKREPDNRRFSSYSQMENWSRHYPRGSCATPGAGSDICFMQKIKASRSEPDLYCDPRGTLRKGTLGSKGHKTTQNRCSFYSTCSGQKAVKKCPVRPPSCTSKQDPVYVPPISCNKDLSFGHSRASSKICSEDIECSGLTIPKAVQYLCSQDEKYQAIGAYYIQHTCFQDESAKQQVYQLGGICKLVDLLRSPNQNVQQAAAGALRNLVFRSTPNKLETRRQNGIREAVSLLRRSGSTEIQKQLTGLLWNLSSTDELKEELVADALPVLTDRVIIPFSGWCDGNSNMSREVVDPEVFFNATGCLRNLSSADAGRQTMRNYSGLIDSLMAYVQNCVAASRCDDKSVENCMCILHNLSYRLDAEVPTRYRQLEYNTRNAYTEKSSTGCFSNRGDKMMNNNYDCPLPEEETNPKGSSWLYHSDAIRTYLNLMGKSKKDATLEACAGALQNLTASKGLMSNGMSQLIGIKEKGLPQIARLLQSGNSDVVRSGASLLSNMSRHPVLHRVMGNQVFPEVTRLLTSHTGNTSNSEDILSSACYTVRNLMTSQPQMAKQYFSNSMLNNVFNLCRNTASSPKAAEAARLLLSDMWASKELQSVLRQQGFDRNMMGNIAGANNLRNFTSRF
To be noted: co-precipitated protein Pkp1 (PKP1_MOUSE). An outline of the steps: as §1

The target of test [4] is T4, MLO-Y4 cell surface proteins (Mus musculus, UniProt Q8R1J9).
T4 construct: endogenous in cells; host or cells: MLO-Y4
To be noted: co-precipitated protein Tor2a (TOR2A_MOUSE). An outline of the steps:
as §1

Test [5] addresses T5, MLO-Y4 cell surface proteins (Mus musculus, UniProt Q66L42).
T5 construct: endogenous in cells; host or cells: MLO-Y4
To be noted: co-precipitated protein Map3k10 (M3K10_MOUSE). An outline of the steps: as §1

T5 sequence (Q66L42 whole entry): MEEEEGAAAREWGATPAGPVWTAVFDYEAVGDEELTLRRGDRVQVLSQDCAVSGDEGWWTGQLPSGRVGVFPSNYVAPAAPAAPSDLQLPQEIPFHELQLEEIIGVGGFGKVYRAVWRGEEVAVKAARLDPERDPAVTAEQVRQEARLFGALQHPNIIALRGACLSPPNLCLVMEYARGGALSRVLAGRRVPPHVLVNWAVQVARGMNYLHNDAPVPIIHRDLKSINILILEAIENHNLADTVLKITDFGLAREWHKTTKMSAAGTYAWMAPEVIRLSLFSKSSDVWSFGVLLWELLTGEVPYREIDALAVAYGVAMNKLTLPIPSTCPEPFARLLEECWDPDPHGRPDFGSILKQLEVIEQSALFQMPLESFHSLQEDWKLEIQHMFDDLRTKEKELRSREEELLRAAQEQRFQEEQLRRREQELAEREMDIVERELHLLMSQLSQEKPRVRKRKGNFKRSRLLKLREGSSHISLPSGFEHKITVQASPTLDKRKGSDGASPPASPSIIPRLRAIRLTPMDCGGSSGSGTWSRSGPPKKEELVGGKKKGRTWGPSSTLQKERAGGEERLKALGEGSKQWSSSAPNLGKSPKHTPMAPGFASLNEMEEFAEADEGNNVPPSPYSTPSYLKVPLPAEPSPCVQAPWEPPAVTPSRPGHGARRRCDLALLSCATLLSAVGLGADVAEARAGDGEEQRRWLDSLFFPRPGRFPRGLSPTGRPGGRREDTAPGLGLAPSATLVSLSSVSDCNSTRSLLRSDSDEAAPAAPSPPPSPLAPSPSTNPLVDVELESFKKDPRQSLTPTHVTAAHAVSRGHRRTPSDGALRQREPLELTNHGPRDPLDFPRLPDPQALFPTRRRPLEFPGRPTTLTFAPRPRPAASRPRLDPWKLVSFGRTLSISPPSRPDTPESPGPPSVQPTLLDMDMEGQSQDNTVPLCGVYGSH
T4 sequence (Q8R1J9 27-321): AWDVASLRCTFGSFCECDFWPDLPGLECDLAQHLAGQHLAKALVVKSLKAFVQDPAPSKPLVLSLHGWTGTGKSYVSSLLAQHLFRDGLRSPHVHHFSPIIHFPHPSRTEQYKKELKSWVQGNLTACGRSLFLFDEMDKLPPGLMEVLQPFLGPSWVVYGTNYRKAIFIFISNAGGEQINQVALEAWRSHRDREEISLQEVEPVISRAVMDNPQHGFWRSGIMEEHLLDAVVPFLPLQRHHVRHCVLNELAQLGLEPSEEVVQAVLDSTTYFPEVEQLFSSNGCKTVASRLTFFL
T2 sequence (P62960 whole entry): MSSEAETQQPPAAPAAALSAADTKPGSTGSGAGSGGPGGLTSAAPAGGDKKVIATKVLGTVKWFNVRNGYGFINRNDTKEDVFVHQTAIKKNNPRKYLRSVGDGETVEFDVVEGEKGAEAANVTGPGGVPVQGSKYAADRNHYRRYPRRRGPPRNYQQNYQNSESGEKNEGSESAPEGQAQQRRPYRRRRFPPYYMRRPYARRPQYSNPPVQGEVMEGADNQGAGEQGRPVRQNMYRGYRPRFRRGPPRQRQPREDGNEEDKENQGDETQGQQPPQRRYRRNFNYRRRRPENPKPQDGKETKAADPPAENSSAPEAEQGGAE

B1: irisin: secreted cleaved form of FNDC5; recombinant human/mouse irisin with C-terminal his tag produced in HEK293 cells (protein)
chain: DSPSAPVNVTVRHLKANSAVVSWDVLEDEVVIGFAISQQKKDVRMLRFIQEVNTTTRSCALWDLEEDTEYIVHVQAISIQGQSPASEPVLFKTPREAEKMASKNKDEVTMKE
modifications: left off: small tags and cut ends
notes: secreted cleaved form of FNDC5; recombinant human/mouse irisin with C-terminal his tag produced in HEK293 cells
As for B1, the irsin/adipsin in test [1] is recorded as 4.05. The “irisin/adipsin TMT signal-to-noise ratio” value was 0.277 in test [2], 0.082 in test [3], 0.486 in test [4] and 0.032 in test [5]. The TMT signal-to-noise ratio in test [3] was found to be 8.015; in test [4] it was 338.383; in test [5], 3.455.
